Reference: patent US20200223889A1 (Novo Nordisk, published 2020)
Positions of bridges follow the written chain, without caps; N, C: chain ends. Non-standard residues stand in square brackets, D forms with d. Phe(3,4-(OMe)2) = COc1ccc(C[C@H](N)C(=O)O)cc1OC; 2Nal = N[C@@H](Cc1ccc2ccccc2c1)C(=O)O; Hyp = O=C(O)[C@@H]1C[C@@H](O)CN1; Cit = NC(=O)NCCC[C@H](N)C(=O)O; Pen = CC(C)(S)[C@H](N)C(=O)O; Pip = O=C(O)[C@@H]1CCCCN1; Thz = O=C(O)[C@@H]1CSCN1; Aze = O=C(O)[C@@H]1CCN1; Sar = CNCC(=O)O

Columns and labels:
[1] = target: human melanocortin 1 receptor (human, UniProt Q01726 1-317); experiment: cell-based or functional assay
Sequence of human melanocortin 1 receptor (Q01726 whole entry): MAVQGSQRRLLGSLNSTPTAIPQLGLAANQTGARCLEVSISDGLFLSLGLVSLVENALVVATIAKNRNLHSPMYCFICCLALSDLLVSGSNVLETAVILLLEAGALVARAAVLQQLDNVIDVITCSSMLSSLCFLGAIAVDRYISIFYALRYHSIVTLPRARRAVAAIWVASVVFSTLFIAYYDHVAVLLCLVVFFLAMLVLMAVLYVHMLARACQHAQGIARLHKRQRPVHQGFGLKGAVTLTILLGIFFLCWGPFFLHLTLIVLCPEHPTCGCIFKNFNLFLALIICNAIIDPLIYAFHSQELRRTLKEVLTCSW

[2] = target: T1, human melanocortin 4 receptor (human, UniProt P32245 1-332); experiment: cell-based or functional assay
T1 sequence (P32245 whole entry): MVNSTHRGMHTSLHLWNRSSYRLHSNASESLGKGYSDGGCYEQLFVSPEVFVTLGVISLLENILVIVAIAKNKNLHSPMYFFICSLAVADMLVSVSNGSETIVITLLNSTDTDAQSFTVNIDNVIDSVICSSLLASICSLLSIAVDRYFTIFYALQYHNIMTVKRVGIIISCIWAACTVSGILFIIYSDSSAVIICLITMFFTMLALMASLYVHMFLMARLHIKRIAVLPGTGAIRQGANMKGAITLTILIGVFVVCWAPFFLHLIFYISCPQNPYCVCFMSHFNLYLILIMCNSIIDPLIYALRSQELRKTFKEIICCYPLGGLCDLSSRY

[3] = target: T1, human melanocortin 4 receptor; experiment: competition with 125-NDP-α-MSH, BHK human MC4R membranes
Summary of the method: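 Competition binding used membranes from BHK cells stably expressing human MC4R with ¹²⁵I-NDP-α-MSH (apx. […] final), compound at 1 μM–0.001 nM. Incubation was 2 h at 25 °C in HEPES pH 7.0 buffer with CaCl₂, MgSO₄, EGTA, Tween 20 and 0.1% HSA or ovalbumin. Filter-bound radioactivity was fitted by non-linear regression.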

Row | Binder | MC1R cAMP EC50 [1] | MC4R cAMP EC50 [2] | Ki [3]
1 | cyclo([Pen]PH[dF]HWCAKKKR) (disulfide 1-7; SMILES C[C@@H]1NC(=O)[C@@H]2CSSC(C)(C)[C@H](NC(=O)[C@H](CCCNC(=N)N)NC(=O)[C@H](CCCCN)NC(=O)[C@H](CCCCN)NC(=O)[C@H](CCCCN)NC1=O)C(=O)N1CCC[C@H]1C(=O)N[C@@H](Cc1c[nH]cn1)C(=O)N[C@H](Cc1ccccc1)C(=O)N[C@@H](Cc1c[nH]cn1)C(=O)N[C@@H](Cc1c[nH]c3ccccc13)C(=O)N2, also called c[c[Pen-Pro-His-D-Phe-His-Trp-Cys]-Ala-Lys-Lys-Lys-Arg]) [Chem. 92] | 47.1 nM | 0.13 nM | 0.04 nM
2 | cyclo(C[dP]H[dF]HWCAKKKW) (disulfide 1-7, also called c[c[Cys-D-Pro-His-D-Phe-His-Trp-Cys]-Ala-Lys-Lys-Lys-Trp]) [Chem. 98] | > 55 nM | 2.7 nM | 0.6 nM
3 | cyclo(C[Thz]H[dF]HWCAKKKW) (disulfide 1-7; SMILES C[C@@H]1NC(=O)[C@@H]2CSSC[C@H](NC(=O)[C@H](Cc3c[nH]c4ccccc34)NC(=O)[C@H](CCCCN)NC(=O)[C@H](CCCCN)NC(=O)[C@H](CCCCN)NC1=O)C(=O)N1CSC[C@H]1C(=O)N[C@@H](Cc1c[nH]cn1)C(=O)N[C@H](Cc1ccccc1)C(=O)N[C@@H](Cc1c[nH]cn1)C(=O)N[C@@H](Cc1c[nH]c3ccccc13)C(=O)N2, also called c[c[Cys-THAZ-His-D-Phe-His-Trp-Cys]-Ala-Lys-Lys-Lys-Trp]) [Chem. 81] | 67 nM | 0.07 nM | 0.03 nM
4 | cyclo(CPH[dF]R[Phe(3,4-(OMe)2)]CAKKKR) (disulfide 1-7, also called c[c[Cys-Pro-His-D-Phe-Arg-3,4-DiMeO-Phe-Cys]-Ala-Lys-Lys-Lys-Arg]) [Chem. 94] | 113 nM | 4.38 nM | 0.25 nM
5 | cyclo(C[Sar]H[dF]HWCAKKKW) (disulfide 1-7; SMILES C[C@@H]1NC(=O)[C@@H]2CSSC[C@H](NC(=O)[C@H](Cc3c[nH]c4ccccc34)NC(=O)[C@H](CCCCN)NC(=O)[C@H](CCCCN)NC(=O)[C@H](CCCCN)NC1=O)C(=O)N(C)CC(=O)N[C@@H](Cc1c[nH]cn1)C(=O)N[C@H](Cc1ccccc1)C(=O)N[C@@H](Cc1c[nH]cn1)C(=O)N[C@@H](Cc1c[nH]c3ccccc13)C(=O)N2, also called c[c[Cys-Sar-His-D-Phe-His-Trp-Cys]-Ala-Lys-Lys-Lys-Trp]) [Chem. 73] | > 50 nM | 1.26 nM | 0.3 nM
6 | cyclo(C[Hyp]H[dF]HWCAKKKW) (disulfide 1-7; SMILES C[C@@H]1NC(=O)[C@@H]2CSSC[C@H](NC(=O)[C@H](Cc3c[nH]c4ccccc34)NC(=O)[C@H](CCCCN)NC(=O)[C@H](CCCCN)NC(=O)[C@H](CCCCN)NC1=O)C(=O)N1C[C@H](O)C[C@H]1C(=O)N[C@@H](Cc1c[nH]cn1)C(=O)N[C@H](Cc1ccccc1)C(=O)N[C@@H](Cc1c[nH]cn1)C(=O)N[C@@H](Cc1c[nH]c3ccccc13)C(=O)N2, also called c[c[Cys-Hyp-His-D-Phe-His-Trp-Cys]-Ala-Lys-Lys-Lys-Trp]) [Chem. 70] | 75.7 nM | 0.38 nM | 0.07 nM
7 | cyclo(C[Aze]H[dF]HWCAKKKW) (disulfide 1-7; SMILES C[C@@H]1NC(=O)[C@@H]2CSSC[C@H](NC(=O)[C@H](Cc3c[nH]c4ccccc34)NC(=O)[C@H](CCCCN)NC(=O)[C@H](CCCCN)NC(=O)[C@H](CCCCN)NC1=O)C(=O)N1CC[C@H]1C(=O)N[C@@H](Cc1c[nH]cn1)C(=O)N[C@H](Cc1ccccc1)C(=O)N[C@@H](Cc1c[nH]cn1)C(=O)N[C@@H](Cc1c[nH]c3ccccc13)C(=O)N2, also called c[c[Cys-AZE-His-D-Phe-His-Trp-Cys]-Ala-Lys-Lys-Lys-Trp]) [Chem. 82] | 94.3 nM | 0.53 nM | 0.07 nM
8 | CXHFRWCXHFRW (Aib 2, 8; D-Phe 4, 10; disulphide Cys1-Cys7; head-to-tail amide Cys1-Trp12, also called c[c[Cys-Aib-His-D-Phe-Arg-Trp-Cys]-Aib-His-D-Phe-Arg-Trp]) [Chem. 9] | 4.02 nM | 0.02 nM | 0.06 nM
9 | cyclo(C[Pip]H[dF]HWCAKKKW) (disulfide 1-7, also called c[c[Cys-PIP-His-D-Phe-His-Trp-Cys]-Ala-Lys-Lys-Lys-Trp]) [Chem. 83] | > 10 nM | 2.15 nM | 0.17 nM
10 | cyclo(C[Thz]H[dF]HWC[Thz]H[dF]HW) (disulfide 1-7; SMILES O=C1N[C@H]2CSSC[C@H](NC(=O)[C@H](Cc3c[nH]c4ccccc34)NC(=O)[C@H](Cc3c[nH]cn3)NC(=O)[C@@H](Cc3ccccc3)NC(=O)[C@H](Cc3c[nH]cn3)NC(=O)[C@@H]3CSCN3C2=O)C(=O)N2CSC[C@H]2C(=O)N[C@@H](Cc2c[nH]cn2)C(=O)N[C@H](Cc2ccccc2)C(=O)N[C@@H](Cc2c[nH]cn2)C(=O)N[C@H]1Cc1c[nH]c2ccccc12, also called c[c[Cys-THAZ-His-D-Phe-His-Trp-Cys]-THAZ-His-D-Phe-His-Trp]) [Chem. 91] | > 10 nM | 0.71 nM | 0.51 nM
11 | cyclo(CPH[dF][Cit]WCAKKKR) (disulfide 1-7; SMILES C[C@@H]1NC(=O)[C@@H]2CSSC[C@H](NC(=O)[C@H](CCCNC(=N)N)NC(=O)[C@H](CCCCN)NC(=O)[C@H](CCCCN)NC(=O)[C@H](CCCCN)NC1=O)C(=O)N1CCC[C@H]1C(=O)N[C@@H](Cc1c[nH]cn1)C(=O)N[C@H](Cc1ccccc1)C(=O)N[C@@H](CCCNC(N)=O)C(=O)N[C@@H](Cc1c[nH]c3ccccc13)C(=O)N2, Printed shorthand is identical to that of Chem. 99; the drawings may differ; also called c[c[Cys-Pro-His-D-Phe-Cit-Trp-Cys]-Ala-Lys-Lys-Lys-Arg]) [Chem. 72] | 5.86 nM | 0.03 nM | 0.03 nM
12 | cyclo(CPH[dF]HW[Pen]AKKKR) (disulfide 1-7; SMILES C[C@@H]1NC(=O)[C@H]2NC(=O)[C@H](Cc3c[nH]c4ccccc34)NC(=O)[C@H](Cc3c[nH]cn3)NC(=O)[C@@H](Cc3ccccc3)NC(=O)[C@H](Cc3c[nH]cn3)NC(=O)[C@@H]3CCCN3C(=O)[C@H](CSSC2(C)C)NC(=O)[C@H](CCCNC(=N)N)NC(=O)[C@H](CCCCN)NC(=O)[C@H](CCCCN)NC(=O)[C@H](CCCCN)NC1=O, also called c[c[Cys-Pro-His-D-Phe-His-Trp-Pen]-Ala-Lys-Lys-Lys-Arg]) [Chem. 93] | 18.2 nM | 0.04 nM | 0.03 nM
13 | cyclo(CAH[dF]R[2Nal]CAKKKW) (disulfide 1-7; SMILES C[C@@H]1NC(=O)[C@@H]2CSSC[C@H](NC(=O)[C@H](Cc3ccc4ccccc4c3)NC(=O)[C@H](CCCNC(=N)N)NC(=O)[C@@H](Cc3ccccc3)NC(=O)[C@H](Cc3c[nH]cn3)NC1=O)C(=O)N[C@@H](C)C(=O)N[C@@H](CCCCN)C(=O)N[C@@H](CCCCN)C(=O)N[C@@H](CCCCN)C(=O)N[C@@H](Cc1c[nH]c3ccccc13)C(=O)N2, also called c[c[Cys-Ala-His-D-Phe-Arg-2-Nal-Cys]-Ala-Lys-Lys-Lys-Trp]) [Chem. 79] | 1.16 nM | 0.02 nM | 0.03 nM
14 | cyclo(CAH[dF]RWRCAH[dF]RWR) (disulfide 1-8; SMILES C[C@@H]1NC(=O)[C@@H]2CSSC[C@H](NC(=O)[C@H](CCCNC(=N)N)NC(=O)[C@H](Cc3c[nH]c4ccccc34)NC(=O)[C@H](CCCNC(=N)N)NC(=O)[C@@H](Cc3ccccc3)NC(=O)[C@H](Cc3c[nH]cn3)NC1=O)C(=O)N[C@@H](C)C(=O)N[C@@H](Cc1c[nH]cn1)C(=O)N[C@H](Cc1ccccc1)C(=O)N[C@@H](CCCNC(=N)N)C(=O)N[C@@H](Cc1c[nH]c3ccccc13)C(=O)N[C@@H](CCCNC(=N)N)C(=O)N2, also called c[c[Cys-Ala-His-D-Phe-Arg-Trp-Arg-Cys]-Ala-His-D-Phe-Arg-Trp-Arg]) [Chem. 69] | 6.9 nM | 1.52 nM | 4.65 nM
